± gives the uncertainty stated by the source.
Experiment: self-splicing fitness, log relative to wild type (ln ratio); higher = more splicing; Tetrahymena group I intron in knt gene, E. coli kanamycin selection, DiMSum; sequences stand for … in CUCUCU…GGAGGGAAAAGUUAUCAGGCAUGCACCUGGUAGCUAGUCUUUAAACCAAUAGAUUGCAUCGGUUUAAAAGGCAAGACCGUCAAAUUGCGGGAAAGGGGUCAACAGCCGUUCAGUACCAAGUCUCAGGGGAAACUUUGAGAUGGCCUUGCAAAGGGUAUGGUAAUAAGCUGACGGACAUGGUCCUAACCACGCAGCCAAGUCCUAAGUCAACAGAUCUUCUGUUGAUAUGGAUGCAGUUCACAGACUAAAUGUCGGUCGGGGAAGAUGUAUUCUUCUCAUAAGAUAUAGUCGGACCUCUCCUUAAUGGGAGCUAGCGGAUGAAGUGAUGCAACACUGGAGCCGCUGGGAACUAAUUUGUAUGCGAAAGUAUAUUGAUUAGUUUUGGAGUACUCGUGGUCG
Procedure, shortened: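 Fitness was computed with DiMSum as the error-weighted combination of replicate fold changes, kanamycin versus none, each normalised to wild type. The library randomised all eight intron nucleotides of the P1ex region, with the intron placed in the knt kanamycin-resistance gene on pET-22b(+) in E. coli BL21(DE3). Six replicate transformations were grown overnight at 37°C or 30°C on LB agar with or without 25 μg/mL kanamycin, plus 100 μg/mL carbenicillin, 50 μM IPTG and 0.2% rhamnose. Pooled colonies were amplicon-sequenced on an Illumina HiSeq 2500.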

Row | Sequence | self-splicing fitness (ln) (30 °C) | self-splicing fitness (ln) (37 °C)
1 | UGAAAGCAAUAUUACGGUGC | -2.02 ± 0.38 | -2.61 ± 0.36
2 | UGAAAGCAAUAUUACGGUUA | -0.156 ± 0.07 | -0.217 ± 0.064
3 | UGAAAGCAAUAUUACGUAGC | -3.52 ± 0.37 | -1.5 ± 0.36
4 | UGAAAGCAAUAUUACGUCAU | -4.25 ± 0.22 | -1.77 ± 0.14
5 | UGAAAGCAAUAUUACGUCGA | -0.893 ± 0.08 | -0.374 ± 0.1
6 | UGAAAGCAAUAUUACGUCUA | -0.288 ± 0.12 | 0.146 ± 0.11
7 | UGAAAGCAAUAUUACGUGAC | -3.86 ± 0.29 | -2.01 ± 0.17
8 | UGAAAGCAAUAUUACGUGGG | -3.67 ± 0.2 | -2.4 ± 0.17
9 | UGAAAGCAAUAUUACGUGGU | -3.22 ± 0.17 | -2.55 ± 0.23
10 | UGACAGCAAUAUUACGAACC | -2.97 ± 0.25 | -1.37 ± 0.22
11 | UGACAGCAAUAUUACGACGC | -1.83 ± 0.13 | -1.25 ± 0.19
12 | UGACAGCAAUAUUACGACUA | -0.585 ± 0.087 | 0.416 ± 0.1
13 | UGACAGCAAUAUUACGCAUU | -3.85 ± 0.18 | -2.4 ± 0.14
14 | UGACAGCAAUAUUACGCCAC | -3.66 ± 0.32 | -1.43 ± 0.27
15 | UGACAGCAAUAUUACGCCAU | -3.25 ± 0.29 | -1.51 ± 0.26
16 | UGACAGCAAUAUUACGCGAG | -2.36 ± 0.11 | -2.06 ± 0.077
17 | UGACAGCAAUAUUACGCGCA | -0.495 ± 0.072 | 0.187 ± 0.077
18 | UGACAGCAAUAUUACGCGUU | -3.69 ± 0.16 | -2.75 ± 0.17
19 | UGACAGCAAUAUUACGGAUA | -1.25 ± 0.095 | -0.669 ± 0.11
20 | UGACAGCAAUAUUACGGCAG | -0.0451 ± 0.065 | 0.0375 ± 0.079
21 | UGACAGCAAUAUUACGGGCU | -2.75 ± 0.16 | -1.57 ± 0.097
22 | UGACAGCAAUAUUACGGGGU | -4.41 ± 0.31 | -2.38 ± 0.23
23 | UGACAGCAAUAUUACGGGUA | -1.07 ± 0.055 | -0.216 ± 0.062
24 | UGACAGCAAUAUUACGGUAA | -1.85 ± 0.12 | -0.692 ± 0.11

Row | Sequence | self-splicing fitness (ln) (30 °C) | self-splicing fitness (ln) (37 °C)
25 | UGACAGCAAUAUUACGGUUA | -0.746 ± 0.073 | -0.364 ± 0.065
26 | UGACAGCAAUAUUACGUAAC | -4.4 ± 0.46 | -2.38 ± 0.19
27 | UGACAGCAAUAUUACGUCCC | -0.969 ± 0.17 | -1.51 ± 0.36
28 | UGACAGCAAUAUUACGUCCG | -0.00105 ± 0.12 | -0.342 ± 0.13
29 | UGACAGCAAUAUUACGUUCG | -0.885 ± 0.068 | -0.194 ± 0.075
30 | UGAGAGCAAUAUUACGAAAG | -5.04 ± 0.28 | -2.86 ± 0.25
31 | UGAGAGCAAUAUUACGACUC | -2.96 ± 0.47 | -2.73 ± 0.45
32 | UGAGAGCAAUAUUACGAGAC | -4.44 ± 0.46 | -2.59 ± 0.29
33 | UGAGAGCAAUAUUACGAGAG |  | -1.16 ± 0.36
34 | UGAGAGCAAUAUUACGAGUG | -4.04 ± 0.29 | -2.93 ± 0.26
35 | UGAGAGCAAUAUUACGAUGA |  | -2.48 ± 0.3
36 | UGAGAGCAAUAUUACGCGGA | -3.34 ± 0.47 | -1.49 ± 0.46
37 | UGAGAGCAAUAUUACGCUGA | -2.42 ± 0.32 | -1.53 ± 0.28
38 | UGAGAGCAAUAUUACGGCGA | -3.53 ± 0.34 | -0.434 ± 0.23
39 | UGAGAGCAAUAUUACGGGCU | -2.32 ± 0.37 | -2.6 ± 0.38
40 | UGAGAGCAAUAUUACGGUCA | -0.647 ± 0.1 | -0.589 ± 0.13
41 | UGAGAGCAAUAUUACGUAAA | -4.31 ± 0.39 | -2.43 ± 0.45
42 | UGAGAGCAAUAUUACGUAAU | -3.22 ± 0.21 | -2.22 ± 0.26
43 | UGAGAGCAAUAUUACGUAGU | -2.29 ± 0.24 | -2.41 ± 0.36
44 | UGAGAGCAAUAUUACGUAUG | -1.55 ± 0.13 | -1.66 ± 0.22
45 | UGAGAGCAAUAUUACGUGUG | -2.9 ± 0.14 | -2.28 ± 0.12
46 | UGAGAGCAAUAUUACGUUAG | -3.68 ± 0.37 | -3.31 ± 0.4
47 | UGAGAGCAAUAUUACGUUCC |  | -2.11 ± 0.47
48 | UGAGAGCAAUAUUACGUUCU | -3.3 ± 0.25 | -2.03 ± 0.27

Row | Sequence | self-splicing fitness (ln) (30 °C) | self-splicing fitness (ln) (37 °C)
49 | UGAGAGCAAUAUUACGUUGU | -3.89 ± 0.19 | -2.91 ± 0.23
50 | UGAUAGCAAUAUUACGAACG | -0.462 ± 0.15 | -0.0562 ± 0.2
51 | UGAUAGCAAUAUUACGAAGG | -2.96 ± 0.15 | -2.26 ± 0.2
52 | UGAUAGCAAUAUUACGACAC |  | -2.22 ± 0.45
53 | UGAUAGCAAUAUUACGACUA | -0.635 ± 0.13 | 0.407 ± 0.17
54 | UGAUAGCAAUAUUACGAGAU | -3.87 ± 0.43 | -1.92 ± 0.3
55 | UGAUAGCAAUAUUACGAUAG | -0.826 ± 0.28 | -0.505 ± 0.32
56 | UGAUAGCAAUAUUACGCAAU | -2.87 ± 0.49 | -1.62 ± 0.36
57 | UGAUAGCAAUAUUACGCAUU | -2.52 ± 0.17 | -2.11 ± 0.17
58 | UGAUAGCAAUAUUACGCCAU | -2.82 ± 0.26 | -3.2 ± 0.3
59 | UGAUAGCAAUAUUACGCGAG | -1.66 ± 0.17 | -0.803 ± 0.13
60 | UGAUAGCAAUAUUACGCGCA | -0.408 ± 0.091 | 0.2 ± 0.1
61 | UGAUAGCAAUAUUACGCGCU | -0.577 ± 0.11 | -0.36 ± 0.14
62 | UGAUAGCAAUAUUACGGCCC | -2.82 ± 0.48 | -0.72 ± 0.42
63 | UGAUAGCAAUAUUACGGCGU | -2.1 ± 0.18 | -1.22 ± 0.16
64 | UGAUAGCAAUAUUACGGGAC | -4.2 ± 0.31 | -2.54 ± 0.25
65 | UGAUAGCAAUAUUACGGUCA | -0.441 ± 0.073 | -0.29 ± 0.071
66 | UGAUAGCAAUAUUACGGUUU | -2.91 ± 0.097 | -1.38 ± 0.11
67 | UGAUAGCAAUAUUACGUACA | -0.211 ± 0.083 | -0.0617 ± 0.12
68 | UGAUAGCAAUAUUACGUGAU | -3.09 ± 0.11 | -2.43 ± 0.17
69 | UGAUAGCAAUAUUACGUUCC | -1.67 ± 0.24 | -1.1 ± 0.4
70 | UGCAAGCAAUAUUACGAGUC | -2.87 ± 0.15 | -1.83 ± 0.14
71 | UGCAAGCAAUAUUACGAGUU | -1.88 ± 0.084 | -0.67 ± 0.098
72 | UGCAAGCAAUAUUACGCAGG | -4.36 ± 0.33 | -3.48 ± 0.37

Row | Sequence | self-splicing fitness (ln) (30 °C) | self-splicing fitness (ln) (37 °C)
73 | UGCAAGCAAUAUUACGCAGU | -3.63 ± 0.3 | -3.35 ± 0.39
74 | UGCAAGCAAUAUUACGCAUG | -3.63 ± 0.21 | -2.32 ± 0.29
75 | UGCAAGCAAUAUUACGCCGG | -2.06 ± 0.13 | -0.615 ± 0.17
76 | UGCAAGCAAUAUUACGCCUC | -1.98 ± 0.46 | -1.23 ± 0.23
77 | UGCAAGCAAUAUUACGCGAA | -2.03 ± 0.1 | -0.581 ± 0.083
78 | UGCAAGCAAUAUUACGCGGC | -2.85 ± 0.17 | -2.3 ± 0.2
79 | UGCAAGCAAUAUUACGCUGA | -2.78 ± 0.12 | -0.102 ± 0.09
80 | UGCAAGCAAUAUUACGCUGG | -4 ± 0.35 | -3.17 ± 0.24
81 | UGCAAGCAAUAUUACGGACG | -0.345 ± 0.068 | -0.0664 ± 0.087
82 | UGCAAGCAAUAUUACGGCCU | -0.521 ± 0.059 | -0.286 ± 0.079
83 | UGCAAGCAAUAUUACGGCGC | -3.27 ± 0.18 | -2.84 ± 0.31
84 | UGCAAGCAAUAUUACGGCGU | -1.24 ± 0.071 | -0.6 ± 0.091
85 | UGCAAGCAAUAUUACGGUCG | -0.179 ± 0.073 | 0.595 ± 0.088
86 | UGCAAGCAAUAUUACGUACG | -0.89 ± 0.12 | -0.478 ± 0.1
87 | UGCAAGCAAUAUUACGUCAU | -3.29 ± 0.13 | -2.17 ± 0.14
88 | UGCAAGCAAUAUUACGUCCU | -0.656 ± 0.094 | -0.908 ± 0.098
89 | UGCAAGCAAUAUUACGUGAC | -2.65 ± 0.39 | -2.19 ± 0.28
90 | UGCAAGCAAUAUUACGUGGC | -2.62 ± 0.16 | -1.68 ± 0.2
91 | UGCCAGCAAUAUUACGAACG | 0.252 ± 0.055 | 0.281 ± 0.067
92 | UGCCAGCAAUAUUACGAAUC | -4.4 ± 0.46 | 
93 | UGCCAGCAAUAUUACGACCG | -0.712 ± 0.1 | 0.509 ± 0.14
94 | UGCCAGCAAUAUUACGAGGG | -2.61 ± 0.18 | -1.94 ± 0.19
95 | UGCCAGCAAUAUUACGAGGU | -3.06 ± 0.13 | -3.99 ± 0.3
96 | UGCCAGCAAUAUUACGAUCU | -2.48 ± 0.1 | -1.44 ± 0.1

Reference: the supplement of paper PMC7877785
